Data taken from paper PMC6713497, “Dimeric structures of quinol-dependent nitric oxide reductases (qNORs) revealed by cryo–electron microscopy” (Science Advances, 2019).

Target: the molecule itself
Experiment: cryo-EM structure; single-particle cryo-EM of detergent-solubilised qNOR-BRIL (50 mM tris, 150 mM NaCl, 0.05% DTM; wild type pH 7.0 at 3 mg/ml, Val495Ala pH 7.5 at 5 mg/ml), C2 symmetry imposed

B1: AxqNOR-BRIL (quinol-dependent nitric oxide reductase from Alcaligenes xylosoxidans fused with apocytochrome b562) (enzyme)
chain: not shown
stoichiometry N: 2
